Measurements from the supplement of paper PMC10724198.

Experiments:
Saccharomyces cerevisiae [1] = assay: protein stability index of tFT-peptide fusion in deletion strain of DAS1 (PSI (0-1 scale)); higher = more stable (slower turnover)
Procedure: (§1)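 MPS profiling in S. cerevisiae of two library types built from selected 12-aa C-degron peptides (IN1, IN2, LN1, LN3, VN2, R1-R5, W1-W3, Atg1 and Rpa12 C-termini): saturation mutagenesis libraries and C-terminal +1 capping libraries (13 aa). Each peptide is fused to the C-terminus of a sfGFP-mCherry timer, after a GGGS linker. Cells are FACS-sorted into 8 mCherry/sfGFP bins and sequenced. PSI runs from 0 (unstable) to 1 (stable), measured once in wild type and in the das1Δ or doa10Δ background.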

Saccharomyces cerevisiae [2] = assay: protein stability index of tFT-peptide fusion in wild type (PSI (0-1 scale)); higher = more stable (slower turnover); details: genetic background: wild type
Procedure: as §1
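For protein stability index of tFT-peptide fusion in deletion strain of DAS1 in this document: PSI is a weighted mean of each variant's read distribution over the sorted stability bins, computed only for variants having over 10 reads in total.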
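For protein stability index of tFT-peptide fusion in wild type in this document: PSI derived as read-weighted mean over the 8 sorting bins, only variants exceeding 10 total reads kept, mCherry placed adjacent to the peptide and sfGFP distal.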

Row | Sequence | protein stability index (Saccharomyces cerevisiae [1]) | protein stability index (Saccharomyces cerevisiae [2])
1 | LKILRQKMNHDN | 0.671 | 0.39
2 | LKILRQKMNHEN | 0.671 | 0.237
3 | LKILRQKMNHQNE | 0.656 | 0.652
4 | LKILRQKMNHQNL | 0.697 | 0.672
5 | LKILRQKMNHQNN | 0.671 | 0.585
6 | LKILRQKMNHQT | 0.671 | 0.252
7 | LKILRQKMNHVN | 0.666 | 0.206
8 | LKILRQKMNHYN | 0.657 | 0.223
9 | LKILRQKMNIQN | 0.686 | 0.214
10 | LKILRQKMNSQN | 0.672 | 0.213
11 | LKILRQKMPHQN | 0.692 | 0.681
12 | LKILRQKPNHQN | 0.675 | 0.68
13 | LKILRSKMNHQN | 0.666 | 0.208
14 | LKILRWKMNHQN | 0.658 | 0.209
15 | LKILRYKMNHQN | 0.64 | 0.181
16 | LKILSQKMNHQN | 0.681 | 0.232
17 | LKKLRQKMNHQN | 0.68 | 0.235
18 | LKNLRQKMNHQN | 0.678 | 0.208
19 | LVDYLSCVACIN | 0.354 | 0.21
20 | LVFYLSCVACIN | 0.0573 | 0.016
21 | LVIYLSCVACIN | 0.0377 | 0.0156
22 | LVNYLSCVACIN | 0.259 | 0.0691
23 | LVVALSCVACIN | 0.0802 | 0.0223
24 | LVVELSCVACIN | 0.0632 | 0.0174
25 | LVVFLSCVACIN | 0.0386 | 0.0196

Row | Sequence | protein stability index (Saccharomyces cerevisiae [1]) | protein stability index (Saccharomyces cerevisiae [2])
26 | LVVQLSCVACIN | 0.0857 | 0.0253
27 | LVVYGSCVACIN | 0.305 | 0.245
28 | LVVYLKCVACIN | 0.0351 | 0.0164
29 | LVVYLSCHACIN | 0.0466 | 0.0126
30 | LVVYLSCRACIN | 0.0311 | 0.0228
31 | LVVYLSCVACFN | 0.076 | 0.0281
32 | LVVYLSCVACGN | 0.0998 | 0.0824
33 | LVVYLSCVACIM | 0.022 | 0.0115
34 | LVVYLSCVACINE | 0.0324 | 0.0198
35 | LVVYLSCVACTN | 0.0308 | 0.0171
36 | LVVYLSCVACYN | 0.0338 | 0.0154
37 | LVVYLSCVAIIN | 0.0381 | 0.0151
38 | LVVYLSCVWCIN | 0.263 | 0.0553
39 | LVVYLSDVACIN | 0.495 | 0.458
40 | LVVYLSFVACIN | 0.116 | 0.0293
41 | MKHKKGQKQKIN | 0.649 | 0.0627
42 | MSLAASFWRVVG | 0.67 | 0.124
43 | NDKRNHLIKLLN | 0.609 | 0.128
44 | NSMRWTFRYWVN | 0.598 | 0.0828
45 | NTSCGYKFRTNN | 0.68 | 0.217
46 | PDDRNHLIKLLN | 0.594 | 0.157
47 | PDGRNHLIKLLN | 0.601 | 0.161
48 | PDKRFHLIKLLN | 0.672 | 0.113
49 | PDKRNHLCKLLN | 0.665 | 0.131
